# Measurements from patent US20040126784.
# Tested on: Histone H1
# Pim1 K67A mutant fused to GFP with a myc tag, sequence (chain, as listed by the source K67A): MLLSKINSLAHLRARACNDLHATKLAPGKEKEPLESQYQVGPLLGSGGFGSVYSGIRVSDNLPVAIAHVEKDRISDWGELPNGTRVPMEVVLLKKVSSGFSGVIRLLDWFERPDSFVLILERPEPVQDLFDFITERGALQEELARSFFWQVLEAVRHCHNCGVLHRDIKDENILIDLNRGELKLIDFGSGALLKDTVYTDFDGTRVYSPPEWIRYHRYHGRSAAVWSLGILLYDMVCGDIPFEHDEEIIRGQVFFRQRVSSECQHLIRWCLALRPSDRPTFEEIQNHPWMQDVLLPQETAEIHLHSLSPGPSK
# PIM1 D186N mutant fused to GFP with a myc tag, sequence (chain, as listed by the source D186N): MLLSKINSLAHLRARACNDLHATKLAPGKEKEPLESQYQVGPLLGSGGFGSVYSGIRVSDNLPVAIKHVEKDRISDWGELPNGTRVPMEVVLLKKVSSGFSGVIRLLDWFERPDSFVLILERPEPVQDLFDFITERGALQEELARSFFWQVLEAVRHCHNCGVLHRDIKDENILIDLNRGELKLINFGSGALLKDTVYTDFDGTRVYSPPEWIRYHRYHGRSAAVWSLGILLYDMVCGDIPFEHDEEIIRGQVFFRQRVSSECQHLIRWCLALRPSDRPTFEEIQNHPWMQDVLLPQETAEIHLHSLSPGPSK
# wild type PIM1 fused to GFP with a myc tag, sequence (chain, as listed by the source): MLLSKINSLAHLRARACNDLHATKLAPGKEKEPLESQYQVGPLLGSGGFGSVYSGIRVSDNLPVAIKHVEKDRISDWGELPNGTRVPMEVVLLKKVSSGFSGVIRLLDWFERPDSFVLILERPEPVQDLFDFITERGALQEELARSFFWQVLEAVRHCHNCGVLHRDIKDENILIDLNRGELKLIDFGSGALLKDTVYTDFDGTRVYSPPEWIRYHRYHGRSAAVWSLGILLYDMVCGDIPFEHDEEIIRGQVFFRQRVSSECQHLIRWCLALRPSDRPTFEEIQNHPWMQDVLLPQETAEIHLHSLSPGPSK
row,Substance,"kinase activity (immune complex kinase assay, 32P-ATP)"
1,PIM1 D186N mutant fused to GFP with a myc tag,"Wild type PIM1 exhibited kinase activity, while the mutant PIM1 proteins did not."
2,wild type PIM1 fused to GFP with a myc tag,"Wild type PIM1 exhibited kinase activity, while the mutant PIM1 proteins did not."
3,Pim1 K67A mutant fused to GFP with a myc tag,"Wild type PIM1 exhibited kinase activity, while the mutant PIM1 proteins did not."
